Biological target: the molecule itself
Assay: crystal structure; X-ray, 2.3 Å, space group C2, three-fold non-crystallographic symmetry; crystals grown at 20 °C from purified Fsx1E (in 20 mM Na-HEPES pH 7.8, 2.5 M NaCl) mixed with 23% PEG 4000, 0.1 M Tris-HCl pH 8.5, 0.2 M CaCl2

B1: Fusexin1 ectodomain (Fsx1E), residues D25-S535 with T369C, crystallised construct (domain or fragment, UniProt C0HM55 25-535, looked up)
chain: DSITYNSGTSEFFDGDVFAIEVTADQSTDEIDIYLGASELSEKTDGEVNQDLSIEFTHQDSKLKYSTSTSDELRDIVTLTTYYEDGFDTEQDAIDAIKSDCYDLNQNGNGSGRYSRYYSVTSPVYDYEIYCFQKNEKLATPAYIDNPDEIFTAKAELQAGDKTIQSATLSNGDAGDGTVTDLGDSKISWNGNLDLGASEPENSRVIALYSNDFENGWRIGNKQSYEDYKTFIGGGDAYDLLIDWQDGTYTASEVEDELVNTDANQAVEEASSSTTDLVNAKVKDSSLDTGSFVYDTPELLSYPSFTVYVDAGENGYIEVTKPTGDPDIISTSSTEIKEGDEGTVCATVENVGDGEGEFSGRLSSCGEGFSIVDDQNTKNVGAGESVTYSFDVAFSSVSSESKEISGSCTFEVNGVESSDSTSVSVTGIQQSECNPGDQRREKNENDRWEIYTCQDNGLTYEYDVTCAEDEKAVAQGDNQFSCEKQDDDSGGGDNTGSDSGLFSNLFGGSGS
notes: Fusexin1 (Fsx1), archaeal fusexin from a metagenomic ORF of a hypersaline environment (IMG genome 3300000868, scaffold JGI12330J12834_1000008, ORF 8); extracellular region, residues D25-S535; Expressed from pLJ6 (derived from pHLsec3) behind the chicken Crypα signal peptide, in frame with a 3' 8xHis tag; T369C was introduced to help heavy atom derivatisation; Homotrimer in the crystal; also …
- stoichiometry N: 3

— article PMC9259645, “Discovery of archaeal fusexins homologous to eukaryotic HAP2/GCS1 gamete fusion proteins” (Nature Communications, 2022)
